This is an account of results in paper PMC10907715, “Soluble Frizzled-related proteins promote exosome-mediated Wnt re-secretion” (Communications Biology, 2024).

Test [1] deals with T1, FLAG-GFP-tagged mouse Wnt3a (mouse, UniProt P27467 19-352).
T1 construct: Wnt3a, mouse; secreted into the culture supernatant; Ends of the tags are read from the order of the printed name; also called GFP-Wnt3a; FLAG-GFP-Wnt3a; source: L cells stably expressing it, secreted into the culture supernatant (not purified); not shown: GFP, N-terminal, kept
The test is described as follows: AUC; AUC-FDS (fluorescence detection) of the culture supernatant of fluorescent Wnt-expressing cells co-cultured with sFRP-expressing or parental HEK293 cells; FluoroBrite DMEM with 8% FBS, no detergent; 20 °C, 42,000 rpm; c(s) model of SEDFIT. The note with it: partners not purified.

In a further test the target is T2, FLAG-mClover-mouse Wnt5a (mouse, UniProt P22725 62-380).
T2 construct: Wnt5a, mouse; secreted into the culture supernatant; Ends of the tags are read from the order of the printed name; also called mClover-Wnt5a; mClover-tagged Wnt5a; source: HEK293 cells stably expressing it (CMV promoter), secreted into the culture supernatant (not purified); not shown: mClover, N-terminal, kept
T2 sequence (looked up): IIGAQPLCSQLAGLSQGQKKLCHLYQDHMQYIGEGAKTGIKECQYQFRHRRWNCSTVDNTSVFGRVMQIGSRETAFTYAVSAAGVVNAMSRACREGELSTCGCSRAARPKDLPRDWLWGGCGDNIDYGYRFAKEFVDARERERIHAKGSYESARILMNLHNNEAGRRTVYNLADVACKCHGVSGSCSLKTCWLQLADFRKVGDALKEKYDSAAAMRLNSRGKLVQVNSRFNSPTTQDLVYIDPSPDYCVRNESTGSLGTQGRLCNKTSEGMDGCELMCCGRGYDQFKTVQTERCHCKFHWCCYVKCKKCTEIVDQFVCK
The description is as above. The note with it: partners not purified.

T1 sequence (P27467 19-352): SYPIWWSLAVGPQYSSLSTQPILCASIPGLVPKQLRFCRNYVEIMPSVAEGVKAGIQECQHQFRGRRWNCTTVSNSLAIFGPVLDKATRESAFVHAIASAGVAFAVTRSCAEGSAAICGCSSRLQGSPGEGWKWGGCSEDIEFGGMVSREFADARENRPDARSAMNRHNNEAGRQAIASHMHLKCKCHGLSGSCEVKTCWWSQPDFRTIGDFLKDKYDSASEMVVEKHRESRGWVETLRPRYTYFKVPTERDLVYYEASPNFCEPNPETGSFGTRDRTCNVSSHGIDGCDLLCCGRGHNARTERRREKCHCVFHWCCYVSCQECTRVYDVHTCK

B1: mouse sFRP2-FLAG (natural protein, UniProt P97299 25-295, looked up)
chain: LFLFGQPDFSYKRSNCKPIPANLQLCHGIEYQNMRLPNLLGHETMKEVLEQAGAWIPLVMKQCHPDTKKFLCSLFAPVCLDDLDETIQPCHSLCVQVKDRCAPVMSAFGFPWPDMLECDRFPQDNDLCIPLASSDHLLPATEEAPKVCEACKTKNEDDNDIMETLCKNDFALKIKVKEITYINRDTKIILETKSKTIYKLNGVSERDLKKSVLWLKDSLQCTCEEMNDINAPYLVMGQKQGGELVITSVKRWQKGQREFKRISRSIRKLQC
notes: sFRP2 (secreted Frizzled-related protein 2), mouse; secreted into the culture supernatant; End of the tag is read from the order of the printed name; also called secreted Frizzled-related protein 2; source: HEK293 cells stably expressing it, secreted into the culture supernatant (not purified)
As for B1, the “stoichiometry N” value (in test [1]; in the test with FLAG-mClover-mouse Wnt5a) was 1 each time.
